Measurements as given in patent US20150299708, “CD133 APTAMERS FOR DETECTION OF CANCER STEM CELLS” (Deakin University, published 2015).

Columns and labels:
[1] = system: CD133-negative cell surface (HEK293T or T98G; no CD133) (Homo sapiens); experiment: flow; conditions: 2'-F pyrimidines, 3'-inverted dT, 37 C
[2] = target: T1, CD133 (prominin-1) (Homo sapiens, UniProt O43490 O43490:20-865); experiment: flow; Hep3B cells; 37 C 30 min, DPBS + MgCl2; conditions: tags: endogenous CD133 on CD133-positive HT-29 or Hep3B cells (ATCC); label: 5'-DY647
T1 sequence: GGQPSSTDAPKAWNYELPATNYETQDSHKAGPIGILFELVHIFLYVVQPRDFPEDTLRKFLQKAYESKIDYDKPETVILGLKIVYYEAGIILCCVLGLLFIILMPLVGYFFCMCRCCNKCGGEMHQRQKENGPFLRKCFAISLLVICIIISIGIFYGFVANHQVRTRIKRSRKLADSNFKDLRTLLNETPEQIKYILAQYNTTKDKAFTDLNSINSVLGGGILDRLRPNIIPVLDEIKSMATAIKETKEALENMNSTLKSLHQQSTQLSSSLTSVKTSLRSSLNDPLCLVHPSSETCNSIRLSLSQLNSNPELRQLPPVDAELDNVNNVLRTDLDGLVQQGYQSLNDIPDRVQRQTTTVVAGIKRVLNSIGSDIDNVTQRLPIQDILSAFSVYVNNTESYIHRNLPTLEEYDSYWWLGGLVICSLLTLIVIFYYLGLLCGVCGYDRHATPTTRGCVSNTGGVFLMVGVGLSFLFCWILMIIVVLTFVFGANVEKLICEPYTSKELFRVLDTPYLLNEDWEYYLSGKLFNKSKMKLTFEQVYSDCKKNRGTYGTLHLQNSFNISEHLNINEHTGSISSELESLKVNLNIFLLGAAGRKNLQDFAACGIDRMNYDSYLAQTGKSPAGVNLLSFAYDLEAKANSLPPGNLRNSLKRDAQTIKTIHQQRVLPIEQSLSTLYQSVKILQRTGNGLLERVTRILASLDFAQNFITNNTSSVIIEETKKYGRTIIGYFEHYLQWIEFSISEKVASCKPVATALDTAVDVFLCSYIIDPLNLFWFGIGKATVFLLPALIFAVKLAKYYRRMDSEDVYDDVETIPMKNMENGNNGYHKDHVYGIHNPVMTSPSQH
Source text: (§1) CCCTCCTACATAGGGAGGAACGAGTTACTATAG -3′, and antisense oligonucleotide, 5′-CTATAGTAACTCGTTCCTCCCTATGTAGGAGGGTGGGTTGAGCGTTTATTCTTGTCTC -3′; CD133-1-2 (2nd truncation) was derived from a sense oligonucleotide: 5′-TAATACGACTCACTATAGCTCAACCCACCCTCCTACATAGGGAGGAACGAGT-3′and an antisense oligonucleotide, 5′-ACTCGTTCCTCCCTATGTAGGAGGGTGGGTTGAGC -3′; CD133-1-2-1 (3rd Truncation) was derived from a sense oligonucleotide, 5′-TAATACGACTCACTATACCACCCTCCTACATAGGGTGG-3′ and an antisense oligonucleotide, 5′-CCACCCTATGTAGGAGGGTGG-3′; and CD133-1-2-2 (4th Truncation) was derived from a sense oligonucleotide, TAATACGACTCACTATACCCTCCTACATAGGG-3′ and an antisense oligonucleotide, 5′-CCC TAT GTA GGA GGG-3′. CD133-2-1 (1st Truncation) was derived from a sense oligonucleotide 5′-TAATACGACTCACTATACAGAACGTATACTATTCTG-3′ and an antisense oligonucleotide, 5′-CAG AAT AGT ATA CGT TCT G-3′ (T7 RNA promoter sequence is underlined). […] The binding affinities of these two aptamers and a negative control aptamer was determined using CD133 positive (HT-29 and Hep3B) and CD133 negative cell lines (T98G and HEK293T). […]

[3] = target: T1, CD133 (prominin-1); experiment: flow; HT-29 cells; 37 C 30 min, DPBS + MgCl2, tRNA, salmon sperm DNA; conditions: tags: endogenous CD133 on CD133-positive HT-29 or Hep3B cells (ATCC); label: 5'-DY647
Source text: as §1

[4] = target: T1, CD133 (prominin-1); experiment: flow; HT-29 cells; 37 C 30 min, DPBS + MgCl2; conditions: tags: endogenous CD133 on CD133-positive HT-29 or Hep3B cells (ATCC); label: 5'-DY647
Source text: as §1

| Molecule | Kd ([1]; CD133-negative HEK293T cells) | Kd ([1]; CD133-negative T98G cells) | Kd [2] | Kd [3] | Kd [4] |
| --- | --- | --- | --- | --- | --- |
| CCCUCCUACAUAGGG [CD133-1-2-2] | 120 µM | 275 µM |  |  |  |
| CAGAACGUAUACUAUUCUG [CD133-2-1] | 1740 µM | 4.76 µM |  |  |  |
| CCCUCCUACAUAGGG (ssRNA, 2'-F pyrimidines; 3'-inverted dT) [CD133-1-2-2] |  |  | 0.032 µM | 0.082 µM |  |
| CAGAACGUAUACUAUUCUG (ssRNA, 2'-F pyrimidines; 3'-inverted dT) [CD133-2-1] |  |  | 0.052 µM |  | 0.145 µM |
